In patent US20140194367A1, “AGROCYBE AEGERITA LECTIN AAL-2, AND ENCODING GENE THEREOF, PREPARATION METHOD THEREFOR AND APPLICATION THEREOF” (WUHAN ALPHA-OMEGA BIOLOGY TECHNOLOGY CO., LTD(CN), priority 2011, published 2014):
“Also recorded” adds a separate entry of the source.

Legend:
H22 = assay: AAL-2 induced apoptosis of H22 cells, Annexin V/PI flow cytometry; type: cell-based, mouse; details: 0.6, 1.2, 2.4 μmol/L; 24 hours and 36 hours; FIG. 6A
Procedure: (§1) The experiment detects the killing activity of Agrocybe aegerita lectin AAL-2 (isolated protein in example 1) to the two tumor cell lines (H22, Huh7). H22 and Huh7 cell lines (purchased from ATCC) are cultured in RPMI1640 medium and DMEM medium (contains 10% fetal bovine serum, […] and 100 U/mL penicillin). Different concentrations of Agrocybe aegerita lectin AAL-2 prepared in the example 1 are added into tumor cells (final concentration is 0.6 μmol/L, 1.2 μmol/L, 2.4 μmol/L) and cultured for 24 hours and 36 hours, respectively. The treated cells are digested into single cell, stained with the Annexin V/PI dye and detected by the flow cytometry.

Huh7 = assay: AAL-2 induced apoptosis of Huh7 cells, Annexin V/PI flow cytometry; type: cell-based; details: 0.6, 1.2, 2.4 μmol/L; 24 hours and 36 hours; FIG. 6B
Procedure: as §1

[1] = test system: mouse hepatoma cell line H22; assay: Tumor growth of H22 tumor bearing mice, in situ tumour injection; type: in vivo, BALB/c mice; details: 5 mg/kg in situ tumour injection every other day, 7 injections
Procedure: In this experiment, the BALB/c mice (6-8weeks old, 20 g) are used for the antitumour activity assay. 0.1 ml mouse hepatoma cell line H22 (1×10^7 cells/mL) is subcutaneously inoculated into the oxter area of the BALB/c mice. 7 days after inoculation, inject the Agrocybe aegerita lectin AAL-2 by in situ tumour (protein isolated in example 1) (5 mg/kg, 0.1 ml/mouse). The control group is treated with 0.9% NaCl. Then take the injection every other day, a total of 7 injections, and record the size of the tumor tissue in mice. Tumor size=tumor tissue length L×width W^2/2.

[2] = Carbohydrate binding specificity by glycochip technology; details: biotin labeled AAL-2, 200 μg/mL
Procedure: (§2) In order to identify the carbohydrate binding activity of Agrocybe aegerita lectin AAL-2, the Agrocybe aegerita lectin AAL-2 is used to detect 465 kinds of carbohydrate by the glycochip technology.
(§3) Firstly, the purified Agrocybe aegerita lectin AAL-2 (isolated in example 1) is labeled with the biotin and 200 μg/mL AAL-2 incubates the glycochip, then the fluorescein labeled streptavidin combines with the biotin labeled AAL-2. Results are shown in Table 4 (different carbohydrate affinity of AAL-2 arranged from high to low (top of 23 carbohydrates)).

[3] = Glycochip binding, glycan 336
Procedure: as §2, §3

[4] = Glycochip binding, glycan 171
Procedure: as §2, §3

[5] = Glycochip binding, glycan 175
Procedure: as §2, §3

[6] = Glycochip binding, glycan 339
Procedure: as §2, §3

[7] = Glycochip binding, glycan 179
Procedure: as §2, §3

[8] = Glycochip binding, glycan 172
Procedure: as §2, §3

[9] = Glycochip binding, glycan 337
Procedure: as §2, §3

[10] = Glycochip binding, glycan 181
Procedure: as §2, §3

[11] = Glycochip binding, glycan 180
Procedure: as §2, §3

[12] = Glycochip binding, glycan 338
Procedure: as §2, §3

[13] = Glycochip binding, glycan 341
Procedure: as §2, §3

[14] = Glycochip binding, glycan 308
Procedure: as §2, §3

[15] = Glycochip binding, glycan 94
Procedure: as §2, §3

[16] = Glycochip binding, glycan 340
Procedure: as §2, §3

[17] = Glycochip binding, glycan 88
Procedure: as §2, §3

[18] = Glycochip binding, glycan 182
Procedure: as §2, §3

[19] = Glycochip binding, glycan 178
Procedure: as §2, §3

[20] = Glycochip binding, glycan 407
Procedure: as §2, §3

[21] = Glycochip binding, glycan 309; details: glycan number 309; 200 μg/mL AAL-2
Procedure: as §2, §3

[22] = Glycochip binding, glycan 176; details: glycan number 176; 200 μg/mL AAL-2
Procedure: as §2, §3

[23] = Glycochip binding, glycan 177; details: glycan number 177; 200 μg/mL AAL-2
Procedure: as §2, §3

[24] = Glycochip binding, glycan 190; details: glycan number 190; 200 μg/mL AAL-2
Procedure: as §2, §3

[25] = Glycochip binding, glycan 17; details: glycan number 17; 200 μg/mL AAL-2
Procedure: as §2, §3

[26] = rank of affinity, carbohydrate spectrum of AAL-2

B1: AAL-2: new lectin isolated from Agrocybe aegerita total protein by affinity chromatography; amino acid sequence SEQ ID NO: 2; 43 kDa monomer (protein, listed as Agrocybe aegerita)
chain: MTSNVITQDLPIPVASRGFADIVGFGLDGVVIGRNAVNLQPFLAVKNFAQNAGGWLTTKHVRLIADTTGTGKGDIVGFGNAGVYVSVNNGKNTFADPPKMVIANFGYDAGGWRVEKHLRYLADIRKIGRADIIGFGEKGVLVSRNNGGLNFGPATLVLKDFGYDAGGWRLDRHLRFLADVTGNGHLDIVGFGDKHVFISRNNGDGTFAPAKSVIDNFCIDAGGWKIGDHPRFVADLTGDGTADIIGCGKAGCWVALNNGGGVFGQVKLVINDFGTDKGWQAAKHPRFIADLTGNGRGDVVGFGNAGVYVALNNGDGTFQSAKLVLKDFGVQQGWTVSKHRRFVVDLTGDGCADIIGFGEKETLVSYNDGKGNFGPVKALTNDFSFSGGKWAPETTVCWMANLDSSRH
apoptosis of H22 cells (H22): apoptosis inducing activity depends on the concentration; also recorded: significantly cause two hepatoma cell lines apoptosis | apoptosis of Huh7 cells (Huh7): apoptosis inducing activity depends on the concentration; also recorded: significantly cause two hepatoma cell lines apoptosis | tumor growth (tumor size) ([1]; FIG. 7A): significantly inhibited; also recorded: inhibit the tumor growth | survival time of tumor bearing mice ([1]; FIG. 7B): prolonged obviously; also recorded: prolong the survival time | carbohydrate binding specificity [2]: specifically preferentially bind to carbohydrates with N-Acetylglucosamine as the terminal | average ([3]; glycan number 336, 200 μg/mL AAL-2): 30519 | order (glycosyl structure affinity of top 18) [3, 26]: 1 | average ([4]; glycan number 171, 200 μg/mL AAL-2): 24487 | order (glycosyl structure affinity of top 18) [4, 26]: 2 | average ([5]; glycan number 175, 200 μg/mL AAL-2): 21115 | order (glycosyl structure affinity of top 18) [5, 26]: 3 | average ([6]; glycan number 339, 200 μg/mL AAL-2): 20868 | order (glycosyl structure affinity of top 18) [6, 26]: 4 | average ([7]; glycan number 179, 200 μg/mL AAL-2): 19530 | order (glycosyl structure affinity of top 18) [7, 26]: 5 | average ([8]; glycan number 172, 200 μg/mL AAL-2): 19311 | order (glycosyl structure affinity of top 18) [8, 26]: 6 | average ([9]; glycan number 337, 200 μg/mL AAL-2): 19030 | order (glycosyl structure affinity of top 18) [9, 26]: 7 | average ([10]; glycan number 181, 200 μg/mL AAL-2): 18737 | order (glycosyl structure affinity of top 18) [10, 26]: 8 | average ([11]; glycan number 180, 200 μg/mL AAL-2): 17289 | order (glycosyl structure affinity of top 18) [11, 26]: 9 | average ([12]; glycan number 338, 200 μg/mL AAL-2): 16141 | order (glycosyl structure affinity of top 18) [12, 26]: 10 | average ([13]; glycan number 341, 200 μg/mL AAL-2): 11672 | order (glycosyl structure affinity of top 18) [13, 26]: 11 | average ([14]; glycan number 308, 200 μg/mL AAL-2): 11572 | order (glycosyl structure affinity of top 18) [14, 26]: 12 | average ([15]; glycan number 94, 200 μg/mL AAL-2): 11198 | order (glycosyl structure affinity of top 18) [15, 26]: 13 | average ([16]; glycan number 340, 200 μg/mL AAL-2): 8758 | order (glycosyl structure affinity of top 18) [16, 26]: 14 | average ([17]; glycan number 88, 200 μg/mL AAL-2): 8504 | order (glycosyl structure affinity of top 18) [17, 26]: 15 | average ([18]; glycan number 182, 200 μg/mL AAL-2): 8464 | order (glycosyl structure affinity of top 18) [18, 26]: 16 | average ([19]; glycan number 178, 200 μg/mL AAL-2): 7339 | order (glycosyl structure affinity of top 18) [19, 26]: 17 | average ([20]; glycan number 407, 200 μg/mL AAL-2): 6992 | order (glycosyl structure affinity of top 18) [20, 26]: 18 | average [21]: 6078 | average [22]: 5896 | average [23]: 5782 | average [24]: 5571 | average [25]: 5331
